Assay results reported in patent US20250163168.

Assay: AC-SINS self-interaction assay; the antibody against itself (N = 2)

negative control (polyreactivity assays)
AC-SINS (wavelength of maximum absorbance relative to blank, nm): 0 nm

positive control (polyreactivity assays)
AC-SINS (wavelength of maximum absorbance relative to blank, nm): 23.5 nm
